Source: a protein production outcome set (Wang et al. 2014)

Experiment: label from the status in PepcDB records

**Q.** For “MSLASLIGLAVCTGNAFSPALAAEAKQPNLVIIMADDLGYGDLATYGHQIVKTPNIDRLAQEGVKFTDYYAPAPLSSPSRAGLLTGRMPFRTGIRSWIPSGKDVALGRNELTIANLLKAQGYDTAMMGKLHLNAGGDRTDQPQAQDMGFDYSLANTAGFVTDATLDNAKERPRYGMVYPTGWLRNGQPTPRADKMSGEYVSSEVVNWLDNKKDSKPFFLYVAFTEVHSPLASPKKYLDMYSQYMSAYQKQHPDLFYGDWADKPWRGVGEYYANISYLDAQVGKVLDKIKAMGEEDNTIVIFTSDNGPVTREARKVYELNLAGETDGLRGRKDNLWEGGIRVPAIIKYGKHLPQGMVSDTPVYGLDWMPTLAKMMNFKLPTDRTFDGESLVPVLEQKALKREKPLIFGIDMPFQDDPTDEWAIRDGDWKMIIDRNNKPKYLYNLKSDRYETLNLIGKKPDIEKQMYGKFLKYKTDIDNDSLMKARGDKPEAVTWGEGHHHHHH”, which protein production is on record?
**A.** not failed

**Q.** For “MPPFMSGLRAVSSLLSCRNAISRKLVSRSGIPRGSFVSDQIRRFGSLSGVERCSSNWLMSNDDARVSFRRLPGSVSLLQRRHFLGCGDGEEGGGELSKIYEERRVLGYTPEQMFNVVAAVDLYHGFVPWCQRSEVLKEYPDGSFDAELEIGFKFLVESYISHVESERPKWIKTTARDTGLFDHLINLWQFKPGPIPGTCDLHFHVDFKFNSPLYRQVASMFFKEVASRLVGAFSDRCRLVYGPGVRVDENAYEQRA”, which protein production is on record?
**A.** failed

**Q.** With “MARRYAIYDVFTERRLAGNPLAVVFEAEGLAEEAMQAIAQEFNLSETVFILRPGNAAHSARLRIFTPAHELPFAGHPTVGAAVAIAEAAYGEANSALELMQVLEESVGPVRAAVRLKPGAATFAEFDLPRKPIRLHAQLDRQEIADALALKTTQVGFENHVPSFWSAGVPFVMIPLRDVGAAASVEFDPQRWEHLAPLAEGRLAAAYLYCRGGINHTARFHARMFAPGMGLAEDPATGSAVAALSGAINFFDGLVDGHHPMLIEQGVEMGRPSFIHLHLDIAEGKIAGARIGGHAVKVAEGELAV” as the sequence, how does the protein production read?
**A.** failed

**Q.** Which protein production does the source give for “MAAEIGSDSQLKRRRRRDPEGSEKTELSEREPALAVEGREENDDENEERWVGPLPVEATLAKKRKVLEFERVYLENLPSASMYERSYMHRDVITHVVCTKTDFIITASHDGHVKFWKKIEEGIEFVKHFRSHLGIIESIAVSSEGALFCSVGDDKAMKVFDVVNFDMINMLKLGYFPGQCEWIYCPGDAISSVAASEKSTGKIFIYDGRGDNQPLHIFDKLHVSPLTQIRLNPVYKAVVSSDKSGMIEYWTGPPHEYKFPKTVNWEYKTDTDLYEFAKCKAYPTSICFSPDGKKIATIGSDRKVRIFRFLTGKLMRVFDESLSMFTELQQMRQQLPDMEFGRRMAVERELEKVDAVRLINIVFDETGHFVLYGTMLGIKVINVETNRCVRILGKQENIRVMQLALFQGIAKKHRAAATIEMKASENPVLQNIQADPTIVCTSFKKNRFYMFTKREPEDTKSADSDRDVFNEKPSKEEVMAATQAEGPKRVSDSAIVHTSMGDIHIKLFPVECPKTVENFCVHSRNGYYNGHTFHRIIKGFMIQTGDPTGTGMGGESIWGGEFEDEFHSTLRHDRPYTLSMANAGSNTNGSQFFITVVPTPWLDNKHTVFGRVTKGMEVVQRISNVKVNPKTDKPYEDVSIINITVK” here?
**A.** failed

**Q.** With “MKRHYIFASHGSFANGLLNSVELILGKQPDIHTLCAYVEEEVDLTQQVEALVARFPAQDELIVITDIFAGSVNNEFVRFLSRPHFHLLSGLNLPLIIDLLISAAEDNTEKLITEALTNAKESIQYCNQTIASAMTMDKDF” as the sequence, how does the protein production read?
**A.** not failed

**Q.** For “MGSGESKANTAETPEVLDVKLTGPEKVNPGESAAYEAAVSYGDEAVTDADEVEFEVWKEGEKDASQMFKVKQEKGVYRLETTFKEDGVYTVQSHVTAKKQHSMPTLKVQVGDADAASNQSEEEHSHHHLEHHHHHH”, which protein production is on record?
**A.** not failed

**Q.** For “MTFLIPAYNEEKSIGPLIDRIKMLCPDSEIIVVDNNSSDRTSEIATSRGVRVIFEGKQGKANAMVAAFRNTRTEYAVMMDADLTYLPDDSRVLVEVLKAEGADVVLGSRLNGEKEDGAISRINTVGNHILSFTASILYSPVSDVCTGHWAFNRRAIRHILEEGLNYSGFELEAEMFSKLARAGLKIVEVPITYRKRSDEPKLSSFTDGFKIFRTLVLERLRLEHHHHHH”, which protein production is on record?
**A.** failed

**Q.** Which protein production does the source give for “HKPWRAEYAKSSRSSCKTCKSVINKENFRLGKLVQSTHFDGIMPMWNHASCILKKTKQIKSVDDVEGIESLRWEDQQKIRKYVESGAGSNTSTSTGTSTSS” here?
**A.** not failed

**Q.** With “MGKIMEWAARSDHLGGIPRNTVIMAVSAFAKAVANLCNKSSVHNADTLMNLVQSRPPGVPLITVSNHMSTLDDPVMWGAFKGLLSLDPELARWVLAAEDICFRNPIFSYIFRTGKCIPITRGGGIYQENMNEALQRLKDGSWLHTFPEGKVFQDDVPIRRLKWGTASLIARSPVTPIVLPIIHRGFEEMMPENYNNGRRPLVPLPNKHLKVVVGEPIEFDVPMMVETAVLDSRHVTPPLQEVKWPVLTSAGQVLDETAQRHLYIALSEKIQSSLETLRLLAKRL” as the sequence, how does the protein production read?
**A.** failed

**Q.** Which protein production does the source give for “MGSPASASHEALRHILDAGASMGSLQGLDEAQQQALYAIAHGAYEQGRYADALKMFCLLVACDPLEARYLLALAAAAQELGLYEHALQQYAAAAALQLDSPRPLLHGAECLYALGRRRDALDTLDMVLELCGSPEHAALRERAESLRRSYARALEHHHHHH” here?
**A.** failed

**Q.** With “MNKNTWIIGFTLFAMFFGAGNLIFPTQLGLESGHFFWPAILAFALTGIGLPLLGVVVGALDKHGYIGSFNKISPRFSLIFLIIIYLTIGPLFAIPRTASTSFEMSVTPIAQNSGNLALFIFTVIYFLIVLYLCLNPNKMIDRIGSLLTPLLLITIVAMIIKGFVDFSGHSSNYGMTNAYHSNLSGFSQGFTQGYLTMDAIASIAFSMIVVNAIKTTGIQHADKIFKQTIIAGLIAAIALVFIYISLGYIGNHINIPSDTLKELKAKDQNIGTYLLTTMATKGFGTFGKYLLGIIVSLACLTTACGLIVSVSEYFHRILPKIPYKVFVIFFILVSFILANQGLNSVIKMSVPVLSVIYPVAITVILLILIARFIPTKRIAQQIPLIIVAIESILSLITTQGWIRISFIDDLPLKEYSLEWFPIAVVATLVGYMISYFVKQSNIVYQKE” as the sequence, how does the protein production read?
**A.** failed

**Q.** For “MGKTLTGFHLKVIGVISMVFDHLLQFFSFLGVPGWFGWIGRIAAPIFLFESSEGFIHTSNRRKYMFRLLLGFWIMGILNGFLNAYFSTGGLIINNIFGTLFLGTVYMQSMDYFKQKQIGKGLLWFIVPLLISALPLVVFSSPDILSNPAILIGFQIFNLIVPSLMMTEGGFLFVLLAVAFYLFHGKKWLQISAIGVVALISAASYNFQELFGVNHQWMMILAAIPIVLYNGEKGRGMRNFFYIFYPAHIAIFAIISFFMQR”, which protein production is on record?
**A.** failed

**Q.** With “MRLYTRTGDKGKTSVIGGRLAKDDTRVVAYGTTDELNSFVGLAITQLDENTFADIRGELFKIQHELFDCGGDLAMLKVKEDRPYKAKQEIVDFLEQRIDAYIKEAPELERFILPGGSEAAASLHVCRTIARRAERYVVRLQQEGEINPIVLKYLNRLSDYFFAVARVVNSRLQVPDVEYERSAIVFREGKRKEDKK” as the sequence, how does the protein production read?
**A.** not failed

**Q.** For “MLDPILLLGLVVAVLAMSLVAQALSSYFRIPFIIFLLIEGIIAGPEVLNLLNPALYVDGLSTIVAISVSVIVFDGGLHIDLKHIRMVQESVLKLTTIGVFVTFLGTTVLTSLLIEIPLELAALFGALVTATGPTVITPIVRNIQISHKLGKILELEGVLNDAASVILAAMVFEWVAAELSGTDAVVFILYRLGIGIALGSLSGFALRWFFTRGKAISNRTARLVSLTAVFSCFVFSEYLGNESGILAVAIFGIILGTSDFPYKDTIKEFKSDIVIVMLSLIFILLAAMIKFEYILRIGASGVALVLLLIFVIRPFAVFVSMWNSQIGTNEKLFISFVGPRGVVPTAVATYFAIKLDSMGIPGGQTLVGLVFLTVIITVFMSGSLSKKVAEVLEVIPMEILIIGGGKVGRILAERFDKRGENVVVVDISEDNCKKCMELGIRTVQGDAGDVNVLKKAGIENAKYVVATTNQDNTNLLFCQLAKASFGFRGDQLVARVNEIENLQAFWNLGIRSMSPAMTTAVVLDNMIGRPHLFSMCEVGGEGEMMEVKVTNPRVIGKAIKDIQFPEKSLLVMVQRGSDSIIAHGNLVLEYEDIVTVIGEGDAAKQTAAILHK”, which protein production is on record?
**A.** failed
